In patent US20220259593A1, “CONTROL OF MAMMALIAN GENE DOSAGE USING CRISPR” (The Regents of the University of California, priority 2019, published 2022):
Changes are numbered by the printed parent chain.

System: K562 CRISPRi cells
Assay: Constant region variant library pooled growth screen, K562
Assay type: cell-based, human
Conditions: sgRNA constant region variants
Method in brief: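 Relative activity expresses each targeting sequence:constant region pair's phenotype over that of the unmodified constant region. Pooled growth screen ran in K562 CRISPRi cells in duplicate spinner-flask replicates, with puromycin selection and 4–8 days' growth at >2000× coverage; library paired variants with 36 targeting sequences.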

[1] = activity relative to the unmodified constant region cr995
[2] = activity relative to the original, un-modified constant region cr995

B1: cr683 (nucleic acid)
guide: GTTTAAGAGCTAAGCTGGAAACAGCATAGCAAGTTTAAATAAGGCTAGTTCGTTATGAACTTGAAAAAGTGGCACCGAGTCGGTGCT
modifications: listed as DNA, chemistry not fully specified
Work on B1 yielded a Mean relative activity [1] of 0.1568.

B2: cr808 (nucleic acid)
guide: B1 guide with G43A, T50C, C51T, G57C, C60A, G69T, G72T, C86A
modifications: listed as DNA, chemistry not fully specified
B2 showed a Mean relative activity [1] of 0.1417.

B3: cr075 (nucleic acid)
guide: B1 guide with A5C, G7T, T50C, G57C
modifications: listed as DNA, chemistry not fully specified
B3 showed a Mean relative activity [1] of 0.1521.

B4: cr560 (nucleic acid)
guide: B1 guide with T34C, T50C, G57C, C76T, G82A
modifications: listed as DNA, chemistry not fully specified
In the case of B4, the Mean relative activity [1] is reported as 0.1347.

B5: cr461 (nucleic acid)
guide: B1 guide with T50C, G52T, T54A, G57C, A66G
modifications: listed as DNA, chemistry not fully specified
Work on B5 yielded a Mean relative activity [1] of 0.1147.

B6: cr821 (nucleic acid)
guide: B1 guide with A26G, T50C, G57C
modifications: listed as DNA, chemistry not fully specified
With B6 the Mean relative activity [2] was 1.038.

B7: cr228 (nucleic acid)
guide: B1 guide with C45G, T50C, G57C
modifications: listed as DNA, chemistry not fully specified
B7 showed a Mean relative activity [1] of 0.1424.

B8: cr796 (nucleic acid)
guide: B1 guide with T36A, T50C, G57C
modifications: listed as DNA, chemistry not fully specified
B8 was tested, and the Mean relative activity [2] was 0.096.

B9: cr259 (nucleic acid)
guide: B1 guide with T50C, A58T, G63C
modifications: listed as DNA, chemistry not fully specified
B9 showed a Mean relative activity [1] of 0.1243.

B10: cr221 (nucleic acid)
guide: B1 guide with G33A, T50C, A65G
modifications: listed as DNA, chemistry not fully specified
With B10 the Mean relative activity [1] was 0.1553.

B11: cr087 (nucleic acid)
guide: B1 guide with G1C, A5G, T50C, G57C
modifications: listed as DNA, chemistry not fully specified
B11 was tested, and the Mean relative activity [2] was 0.1041.

B12: cr091 (nucleic acid)
guide: B1 guide with A5T, G7C, T50C, G57C
modifications: listed as DNA, chemistry not fully specified
In the case of B12, the Mean relative activity [1] is reported as 0.1366.

B13: cr727 (nucleic acid)
guide: B1 guide with T50C, G57C, G72T, A74G, T84C, C86A
modifications: listed as DNA, chemistry not fully specified
B13 showed a Mean relative activity [2] of 1.037.

B14: cr401 (nucleic acid)
guide: B1 guide with T50C, G57C, A74T, G82T, T84C
modifications: listed as DNA, chemistry not fully specified
For B14, the Mean relative activity [2] was 0.09781.

B15: cr691 (nucleic acid)
guide: B1 guide with T50C, G57C, C73G, A74C, T84G, G85C
modifications: listed as DNA, chemistry not fully specified
With B15 the Mean relative activity [2] was 1.038.

B16: cr798 (nucleic acid)
guide: B1 guide with C45A, G48T, T50C, G57C, C75T, G77C, C81G, G83A
modifications: listed as DNA, chemistry not fully specified
Work on B16 yielded a Mean relative activity [1] of 0.1361.

B17: cr274 (nucleic acid)
guide: B1 guide with G33C, T50C, G57C, T61C, A68G
modifications: listed as DNA, chemistry not fully specified
With B17 the Mean relative activity [1] was 0.1303.

B18: cr490 (nucleic acid)
guide: B1 guide with T50C, G57C, C60A, G69T, A74G, G77C, C81G, T84C
modifications: listed as DNA, chemistry not fully specified
With B18 the Mean relative activity [1] was 0.1317.

B19: cr062 (nucleic acid)
guide: B1 guide with T4C, A8T, T50C, G57C
modifications: listed as DNA, chemistry not fully specified
In the case of B19, the Mean relative activity [2] is reported as 0.1003.

B20: cr411 (nucleic acid)
guide: B1 guide with G44A, T50C, G57C
modifications: listed as DNA, chemistry not fully specified
Work on B20 yielded a Mean relative activity [2] of 0.1086.

B21: cr288 (nucleic acid)
guide: B1 guide with G33C, T50C, G57C, T62G, A67C
modifications: listed as DNA, chemistry not fully specified
In the case of B21, the Mean relative activity [2] is reported as 0.1016.

B22: cr089 (nucleic acid)
guide: B1 guide with A6T, G7A, T50C, G57C
modifications: listed as DNA, chemistry not fully specified
For B22, the Mean relative activity [1] was 0.1183.

B23: cr881 (nucleic acid)
guide: B1 guide with T50C, G52T, T56A, G57C
modifications: listed as DNA, chemistry not fully specified
B23 gave a Mean relative activity [1] of 0.1367.

B24: cr059 (nucleic acid)
guide: B1 guide with T2G, G7A, T50C, G57C
modifications: listed as DNA, chemistry not fully specified
Molecule B24 has a Mean relative activity [1] of 0.1106.

B25: cr513 (nucleic acid)
guide: B1 guide with G33C, T50C, G57C, A59C, T70G
modifications: listed as DNA, chemistry not fully specified
B25 was tested, and the Mean relative activity [2] was 0.0947.

B26: cr290 (nucleic acid)
guide: B1 guide with T50C, G52A, G57C, G71T
modifications: listed as DNA, chemistry not fully specified
Molecule B26 has a Mean relative activity [2] of 0.1027.

B27: cr229 (nucleic acid)
guide: B1 guide with A42C, T50C, G57C
modifications: listed as DNA, chemistry not fully specified
With B27 the Mean relative activity [1] was 0.1478.

B28: cr063 (nucleic acid)
guide: B1 guide with G1A, A5T, T50C, G57C
modifications: listed as DNA, chemistry not fully specified
B28 gave a Mean relative activity [1] of 0.1565.

B29: cr257 (nucleic acid)
guide: B1 guide with A41C, T50C, G57C, G71T
modifications: listed as DNA, chemistry not fully specified
With B29 the Mean relative activity [1] was 0.1109.

B30: cr714 (nucleic acid)
guide: B1 guide with T34C, T50C, G57C, C60A, G69T
modifications: listed as DNA, chemistry not fully specified
With B30 the Mean relative activity [2] was 0.09294.

B31: cr872 (nucleic acid)
guide: B1 guide with G48T, T50C, G57C
modifications: listed as DNA, chemistry not fully specified
B31 gave a Mean relative activity [1] of 0.1317.

B32: cr453 (nucleic acid)
guide: B1 guide with A39C, T50C, G57C
modifications: listed as DNA, chemistry not fully specified
B32 showed a Mean relative activity [2] of 0.09528.

B33: cr395 (nucleic acid)
guide: B1 guide with A42T, T50C, G57C, G71A, G79A
modifications: listed as DNA, chemistry not fully specified
In the case of B33, the Mean relative activity [1] is reported as 0.1397.

B34: cr580 (nucleic acid)
guide: B1 guide with A38G, T50C, G57C
modifications: listed as DNA, chemistry not fully specified
B34 was tested, and the Mean relative activity [2] was 0.1076.

B35: cr390 (nucleic acid)
guide: B1 guide with G33A, T50C, G57C, G71A
modifications: listed as DNA, chemistry not fully specified
With B35 the Mean relative activity [1] was 0.1354.

B36: cr502 (nucleic acid)
guide: B1 guide with T50C, G57C, G83C
modifications: listed as DNA, chemistry not fully specified
Molecule B36 has a Mean relative activity [1] of 0.1485.

B37: cr084 (nucleic acid)
guide: B1 guide with T3C, A5G, T50C, G57C
modifications: listed as DNA, chemistry not fully specified
For B37, the Mean relative activity [2] was 0.09372.

B38: cr112 (nucleic acid)
guide: B1 guide with G43A, C45T, G48A, T50C, C51T, G57C, C60T, G69A
modifications: listed as DNA, chemistry not fully specified
B38 gave a Mean relative activity [2] of 0.0933.

B39: cr761 (nucleic acid)
guide: B1 guide with A31T, T50C, A55G, G57C, A58T
modifications: listed as DNA, chemistry not fully specified
B39 showed a Mean relative activity [1] of 0.1369.

B40: cr538 (nucleic acid)
guide: B1 guide with T34C, G44A, G57C
modifications: listed as DNA, chemistry not fully specified
For B40, the Mean relative activity [2] was 0.1104.

B41: cr325 (nucleic acid)
guide: B1 guide with G33C, T50C, G57C, A59G, T70C
modifications: listed as DNA, chemistry not fully specified
B41 gave a Mean relative activity [2] of 0.09143.
